Assay: protease stability score; higher = more stable; yeast display proteolysis, trypsin and chymotrypsin;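 note: relative to predicted unfolded state with 0 unfolded-like and 1 meaning tenfold more protease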

Row | Sequence | protease stability score
1 | DDSERILRWFWNVLAESIETGDEEVMKELFDPNTRIHVNGQDHIGMEHRTRLASEMRITLYRVDLKRIHEVDGRIVLHIEVETHGTINGRLEHSKVRVQIIVSKIDGKWRMHQVEVK | 1.38
2 | DDSHKKLKHAFELLLHALRTGDEDLLKELIDPEVRILFNGKIFHGREWWEHLLRHIRFKDIHIKNIDIQGDKLRVDSRLHIIIDGRHVDFEAEFYIVKVDGRWFTEEIVIK | 2.21
3 | DDSQDIAKTMVDIITKNSLTGDEENFEHLVDPDARLTVNGVELHGREDVVRWMKHARIHDTRVRHIRVQGNKIEVDSESRVDINGKENEMKFKLIFIKVNGQWHIRDIEIR | 2.13
4 | DDSRRVAEEVSELIKILYDTGDWRHLHELLDPHVRIEIGDKEFHGRDTWLREMIRADHVEYHTHDYRSQGNKIFIRGHLIVHINGRTHKEDVRLHVHKVDGQWIIDSIEMK | 1.01
5 | DDSSELLRKLLEELLRAYKTGDFDTLIEFFDPDVKLEFNGREVHGMDHFISEHRHFIRRFPGIRIHIDDVKWHTQGDKAQLHMDGTEDFDGKRRRVELIFIIEKFDGRWFFSSIRWHNI | 1.53
6 | DDTDKLLKEYLEMEMEMIRTGNEHIFTRLADPNVRIEQGDKHFHGREEYKRLMEEHFEKIQHAKIEFRVHDIKRIGDKMYIRGEFIVHVGEYHESQDRIFINRKIDGRWYVEEIIIR | 1.25
7 | DDTDRRSRILTELSLNLFRTGDWKLFEEMADPHARMSMDVDGKELRHHGRESVSHVWHRQLFELGVDHYDLHDVKVIDGVMHVFSEVKVGDKRLELLIVAEKVNGKWHIREVHIKII | 0.202
8 | DDTEDLATELSKIIRTVLRTGDWHTLRELADPNMRLNVNGQERHGMDLVREIHLNAGWQRVTVIIRHLHIDENEMHLETETRYDGQKHRVHVHVKKINGRWVIDFIIIH | 1.09
9 | DDTKKHMEKIFRLMIEWWETGDFDRMENNADPHVRAHIGDKEIHGREEMIKLIRELIEELGIDHEETEEVRVYDGRIHVHSRLHINGKEIEVQLHSQVVDGRIESFELHVITR | 1.05
10 | DDTLRDLFHLIELFHKALKTGDEQKMRENLDPHAKFDWDGRDYVGMEEVVKYVVEARIESTFHIHSVRKIGNKLDVDGTFSLEVDYNGKKEDIHSRQHHFIYKVDGQWIIKRIIIK | 0.537
11 | DDTRELSKHWHERWLHAHETGDEELLLSLLDPHVRLEVGDKHLIGRDKLKWHMEEEIEFFKNAKLHVRRVSIQGNKIEMELEVRIDGVRHEVHIHYDIIDGRITRFEVRIV | 0.21
12 | DDVEKDARWLVDELIHLLETGDEDTLLKLADPNTRIEIGDFHFHGRRDLKRILHEMRVKLDHLRIEHLDAQGEWIYIQFHYHQTINVNGRVVHEQRRVELESIKINGRWTIHFFKVK | 1.28
13 | DDVEKLTREWFEKYLHTIQTGDEHSFERLADPNVRLHAENREYHGMEVISERLREEQDKFKGLRITHFHITHIINNEDEMYVDGRIVVEWNGQKEILTVHLIAFKVNGKWILKRYVKK | 1.78
14 | DDVERIVKHMLELHIQSWLTGNEHLMHRLADPNVRSHIGDKERVGRHELSEMMIKHWEHLRIHRVEIRDSDVVGEKAESNTHVVVIFNGVEVRFDVRIEVVSINGRLHSSHIIIE | -0.029
15 | DDVHEDATRAIKILKHNLETGDEDKLMTMMDPNVRFEDGNKHAHGREQTVQVLLEIIEKLGVSKFSHEIKDLKIVDGKLHLHGTLKVDGKTVDLEVVSLKINGRWLIKSIHLH | 1.19
16 | DDWEEEVHKFSRLFIKSVETGDEDTLHKFADPNVMLHQGDKEYHGREMFVRWSNELLRHLGVSKVRARMHDDKAYNGVVHLDLENRFNGRTVRIEVRIEKINGKWLMTEVRIE | 0.622
17 | DDWEEILREMIERWLKIFLTGDEEQLQRLADPDTRLNFNGREHHGMETLRRWRHRYEEEMRVRRINVKHEEFQGEKIRMDTELHTEVNGVKIITRTELIFIIINGRIKEVEIRVK | 0.853
18 | DDWEEVLKDFLKKYFEALHTGNEELFLLMLDPHVKFDWNGQKMVGREKEIETLRREIKSAGVTRIERELEIKDTRLVDGRLRIDLSIHLNFNGRKFEIDVELHLNKINGRWEIESIKYR | 1.15
19 | DDWEEVTRRSVEEFIRAIDTGDEDFLRTMVDPDTRVEINGVEVHGMEELMRLFSEHIKKVKNIRFHLEIRHVESQGDKIRIEGHEESNVDGRHRKKSTEMHWIKVDGRWFLHRVILR | 1.39
20 | DDWEKLYEELTRLWLKLLITGDEEILIKLMDPHYRYHQGDKELHGRESYAEEVRREYEHARVKIHVERIHVFENHVEVNGELKIEINGRHYSIRTRIHLNIVNGKIKSIEIRTD | 1.39
21 | DDWERLYLHLARLWFELILTGDEETIDKMVDPHTRLEIGDFESHGREELRYLFHHMRSHEIRIRSFDTYGDKAIIDGEIDTIINGRRMIVKIRLHVIIINGRVHSIKVEHE | 1.08
22 | DDWHEEMREMLELLLRALFTGDEKHLVENLDPNVKIIFDGKDLHGRRDASKLIHEYGVDHITRHKIHDSKFFNGRLDVDGIFDQTVNGRREEVHRRIILLKFDGRWWIHRIEIR | 1.63
23 | DDWHEILKHHFDNEVESILTGDEDSIKKMIDPHVRLEVNGREVHGMEEFARVMIEIRFRRIDLRERDIFNGVLHLRLEVDWEYGDKRFETEEEVVYFKVNGRWILESMRVR | 1.26
24 | DDWLEDTKRLLEEFRQAINTGDEELLKILFDPHVRMNIDGVELHGRSVLEHFLERYDVIKVRRHHITDLKFQGNYLIIHLKTDIQIDIGDKHYKEEREVEMVVEKVNGRWIIRLMTER | 1.4
25 | DDYDHITELALREIERVLHTGDEEDLRRMIDPHVRIDIDGKDIHGWENLFKHIEEERRRFPNLQIDWELKDTRKQGDKIILHGQIHIQQGDKEIERDFTIKAVKINGQWIVKTFHIR | 1.63

Row | Sequence | protease stability score
26 | DDYEKDDKHFLNVFLHMLETGDWEKLEKLADPRVRQDVDGVEYHGMEEAVEVWHRLRHKFKGLTLREVTIHDIRTIDGKIDLDVEFHFDFNGREISRRVIIIVDKINGRWELKSMKEK | 0.074
27 | DDYEKSSKVVWQILVRALETGDEEELRDLFDPHVRIQIGEFHFHGWETVHEHMRRADHIIVRDSKSRDIDHQGNKVILHVDLHIEFTYNGVERSTTFRSNMIMVKVNGKWVIEKIHLQ | 1.55
28 | DEADRFREFAKRLYLEKSNTGDWEELIRLFDPHARYEYGDKEMHGRDTIDFLREMLGIDRIQLRHVNDHSVDLQGDKIHIDGTVVEEWNGQEYRSRVILILRKVDGRWYLETMHVD | 0.409
29 | DEAEEHMRRYSELMMKSFLTGDEHTLRKLADPHTKLIFNGKELHGREEVARVFTWSREELGVDHQDVRHVSVRLVDGRVHVDIILEVNVGDKRFQVHIHLTILKYDGRWFVESVHIEIR | 0.285
30 | DEAHEWLKTLADLFFHWMLTGDFEHWIDYLDPDAKIEFEGRSNHGRENIYQLLLELKQEIRVRDYELKDVRIQGEKLLLNVHLHGHIGDKEIRTDTVLRLRVVDGRLKEVHIEIR | 1.52
31 | DEAQEIVEFVFKILAEFQETGDEDSLKHLLDPNVRILQGNKELHGRDQNIKRLREELDRFGVDKFRVELRLEHVTIIDGRLHLDMRLNLDVNGVEIRLEVHFVLIKVDGQWSIHEVRFH | 1.61
32 | DEARVIFEEFIRQLLHAIRTGDFDLYRHLADPHVQVEIGDKVFWGREVITEFEDDLLRRMGVNHVDMRIRIFEIIDGRIHIVGEHRIDVNGRDEHIDTRVLVHKVDGRWVLRRERRT | 0.647
33 | DEATEAWRVVVELIKRANETGDEETRSENMDPETRMSIDGVDFIGREEVIKHVHKVKNMRIKHVEINDVRIQGDKIHVRGTLHGTVNGRETRIDVVLYVWKINGQWIIHSIEFI | 1.5
34 | DEATEKAKKAYELWMHSLKTGDEHHLKNLMDPDVRVIIDGVDMHGWEAAHFERRRFDHIHRVHVDHYEFQGNKSIWDGTVDGKVGDKEHRNRRIIIMNVVDGRYKSIHLHVE | 0.991
35 | DEATKDAERIIEMFIRAIETGDEKVFKRLLDPNVRLVVDGKEFHGREKFIEWLRRIDVTHQVHFRLHDSDMQGDKLHLDSSEIHDVKYNGVRFVDHYRVHLQIHKFDGRWHLENIIIR | 1.51
36 | DEATKSAEIAVRLLKKTQDTGNEELERKLVDPHVRVDVNGRESHGWEHLVEIIREMRVHSLTVTRSEVQGNKVFNDGILDGEINGVRVHIYIHIIIEKINGQWVIRELRFH | 0.803
37 | DEDAHLIEHLVHLMLHATNTGDEDILKDLMDPNMKIQIGDKEFHGREEFEEMHRRADHLETTDWKLHSVDIQGDKIHLDTRVDRVIIINGKITREDTRTELDVRKIDGRWVVTRISVE | 1.27
38 | DEDDDLALHMFELLLHVWTTGDERIMHELLDPHARLDFNGRTFHGREAFIHYMHEIFRHIRINDSTVRHIRVIDGRLDIESHVDIRVGDKRFEMETHLIVLKVDGKWQVTLYKLS | 1.4
39 | DEDDEAAEMAVRFFIEILLTGNENIHSKLLDPNVKVNIGEFESIGRKEVEKTFKEFVHHMWIRHIEVHKWSVYDGQVDVESRLDGQVNGQHVNVEVLIIIVKINGKWFLRSLDFR | 1.71
40 | DEDDEAAQEAVKIVEEVTKTGNWRVLLELLDPHTRVHTEHHELHGMEEYVREVQKMMQDFGVTKVEVRFHEIIIIGEKIHMRVTIHVNGVTLDTEVVSLKYNGRWYLHTLRMK | 1
41 | DEDDEAVKRFIDEFVHSMRTGDEEKLYRLADPHVRSVIDGVEFVGMHWLTTELHHLRVQRLEFEFKDIHFQGDKAHVRGHLILTLHFNGREYVVRREVELIILKINGRWHLHEFIWR | 1.68
42 | DEDDEDADNAIRLIVHSMLTGNEDFFSRLLDPNVRLDYNGVEFIGREDVVRFWNQMRFEFRVEVRRTSSQGDKVNWDIRLRIILHFNGKRHDRLHDTVLISRKYNGKWHVEQIEVR | 1.54
43 | DEDDEDSEEASRRMVETHLTGDEDKQSKMMDPNVKFLFNGVEFHGWELLHKIWTEFGIKHHQLKSVEVRNINGQVRVHVDGVIDVNGVSLKSELNFVAEKVDGRWRVKRIEIHIR | 1.58
44 | DEDDEDTRRLLKLLSDAEETGDEELLRHLADPHVRVHVGDKEWHGWDAFVRFLRHIRIETFHVRRIRVQGDKVDVDGQTVVTINGRRHELKTTIILIKIDGQWVIEKLTIH | 1.79
45 | DEDDEFERLFWKKWVDALRTGNEEIIRKMVDPNVKIVFNGKELHGREAVDIVLKRIDHIDDIKLRHSRVVDGRVEITTKIHMKVGDKSIDSETHMSFEKIDGRWIITEMFFV | 2.59
46 | DEDDEFMKRLAEEVIKNLHTGDWESLVHLMDPNALFEFDGVRNHGREQTDRFWEEVHERYPNVREKWDIHTIDVFNGRAKVDSRITFHFDGRDYVHKSEFHLIVFNGKVKSVHIHIR | 0.158
47 | DEDDEHSEEIAKMWMHLVHTGDFDSETKLVDPHVKFKIDGREIIGREVFMQLMIELRHILRDSKIDDLNRQGEFLHVHGQVHGELIIGDKNFEINHKVEFIIIKVNGRWFAHTIIFR | 1.64
48 | DEDDEHTHEMLKLVITAINTGDFEKWRHMADPNVRSDIDGQEVHGRETIIEVWRRIEKELGIENVEVHTRRVEVINGVAHIDGHIRFNGRTHKVRIEVYLINGKIQEFVLSRH | 1.45
49 | DEDDEKEKFLLELLLEALKTGDWQIFEDLADPHMKFIFNGREYHGMETFSRLMEEFLKRFPNLRIRRIEIEDHHKQGNKVELDARLYSSQGNKRLNHKMILISEKINGRWLIHSLSIE | 2.61
50 | DEDDELAERFFRFWLEFVLTGDEDSSSHLLDPDVRTKYNGVDFHGMESHSKLLLELRIKDFRFTRIRIINGRLEIHGRMHQEIDGKKVDTTVTIDSIKINGKWRVKTINIG | 1.73

— the NTF2 design screens of Basanta et al. (2020)
